The test deals with Escherichia coli RNA polymerase holoenzyme with σ^70, in the initially stalled complex (E. coli) (UniProt P00579).
Sequence of UniProt P00579 (P00579 whole entry, looked up, one chain of several): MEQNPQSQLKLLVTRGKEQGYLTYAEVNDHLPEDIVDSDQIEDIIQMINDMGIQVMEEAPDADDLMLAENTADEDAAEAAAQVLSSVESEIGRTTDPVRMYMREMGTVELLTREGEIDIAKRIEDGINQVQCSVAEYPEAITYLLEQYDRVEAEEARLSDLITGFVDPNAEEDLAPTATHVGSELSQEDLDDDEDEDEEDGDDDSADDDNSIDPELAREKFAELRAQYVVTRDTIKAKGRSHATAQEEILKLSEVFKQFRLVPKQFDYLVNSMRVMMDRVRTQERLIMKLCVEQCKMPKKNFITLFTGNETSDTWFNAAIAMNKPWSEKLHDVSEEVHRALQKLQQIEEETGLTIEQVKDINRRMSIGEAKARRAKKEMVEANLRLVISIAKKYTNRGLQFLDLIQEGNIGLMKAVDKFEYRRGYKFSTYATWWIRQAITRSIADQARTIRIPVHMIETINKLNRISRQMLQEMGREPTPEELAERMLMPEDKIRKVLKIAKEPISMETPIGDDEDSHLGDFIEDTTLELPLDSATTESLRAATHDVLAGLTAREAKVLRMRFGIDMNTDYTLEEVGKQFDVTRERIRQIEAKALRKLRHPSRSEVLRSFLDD

The substance “Rho (ρ) transcription termination factor, wild type (from UniProt P0AG30 1-419) (enzyme)” had a time constant of the decrease of stand-by TE as the interval between ISC washing and NTP injection is prolonged of 693 s.
